Source: US7101851 (dated 2006)
Bridges are numbered along the chain shown (N, C = ends). Where no end group is shown, it is not given here. [ ]: non-standard residue; d: D form. NMeA = CN[C@@H](C)C(=O)O

T1: alpha subunit of the human FcεRI receptor (IgE high affinity receptor), expressed on Chinese hamster ovary … (human, UniProt P12319 26-257)
T1 construct: whole, on cells; also called CHO FcεRI+ cells; FcεRIα
T1 sequence (looked up): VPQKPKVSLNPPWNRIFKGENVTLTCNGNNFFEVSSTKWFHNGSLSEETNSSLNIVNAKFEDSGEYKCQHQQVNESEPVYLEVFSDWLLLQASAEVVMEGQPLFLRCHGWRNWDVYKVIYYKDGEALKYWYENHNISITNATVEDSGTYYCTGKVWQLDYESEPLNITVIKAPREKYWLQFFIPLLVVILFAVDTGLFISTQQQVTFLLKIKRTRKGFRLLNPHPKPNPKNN

B1: IGE131 (peptide)
peptide: VQCPHFCYVGGKVQCPHFCYV-NH2
modifications: not fully specified (bridges); cysteine pairing not given here
B2: IGE126 (peptide)
peptide: VTCPRWCYVGGKALCPDVCYV-NH2
modifications: cysteine pairing not given here
B3: IGE158 (peptide)
peptide: VQCPHFCYFGGAELC[NMeA]DVCYV-NH2
modifications: disulfide 7-15, 3-19; N-terminus assumed
SMILES: CC(C)C[C@@H]1NC(=O)[C@H](CCC(=O)O)NC(=O)[C@H](C)NC(=O)CNC(=O)CNC(=O)[C@H](Cc2ccccc2)NC(=O)[C@H](Cc2ccc(O)cc2)NC(=O)[C@@H]2CSSC[C@H](NC1=O)C(=O)N(C)[C@@H](C)C(=O)N[C@@H](CC(=O)O)C(=O)N[C@@H](C(C)C)C(=O)N[C@H](C(=O)N[C@@H](Cc1ccc(O)cc1)C(=O)N[C@H](C(N)=O)C(C)C)CSSC[C@H](NC(=O)[C@H](CCC(N)=O)NC(=O)[C@@H](N)C(C)C)C(=O)N1CCC[C@H]1C(=O)N[C@@H](Cc1c[nH]cn1)C(=O)N[C@@H](Cc1ccccc1)C(=O)N2
B4: IGE130 (peptide)
peptide: ALCPDVCYVGGKVQCPHFCYV-NH2
modifications: disulfide 7-15, 3-19; N-terminus assumed
SMILES: CC(C)C[C@H](NC(=O)[C@H](C)N)C(=O)N[C@H]1CSSC[C@@H](C(=O)N[C@@H](Cc2ccc(O)cc2)C(=O)N[C@H](C(N)=O)C(C)C)NC(=O)[C@H](Cc2ccccc2)NC(=O)[C@H](Cc2c[nH]cn2)NC(=O)[C@@H]2CCCN2C(=O)[C@@H]2CSSC[C@H](NC(=O)[C@H](C(C)C)NC(=O)[C@H](CC(=O)O)NC(=O)[C@@H]3CCCN3C1=O)C(=O)N[C@@H](Cc1ccc(O)cc1)C(=O)N[C@@H](C(C)C)C(=O)NCC(=O)NCC(=O)N[C@@H](CCCCN)C(=O)N[C@@H](C(C)C)C(=O)N[C@@H](CCC(N)=O)C(=O)N2
B5: IGE146 (peptide)
peptide: VQCPHFCYVGEALCPDVCYV-NH2
modifications: disulfide 7-14, 3-18; N-terminus assumed
SMILES: CC(C)C[C@@H]1NC(=O)[C@H](C)NC(=O)[C@H](CCC(=O)O)NC(=O)CNC(=O)[C@H](C(C)C)NC(=O)[C@H](Cc2ccc(O)cc2)NC(=O)[C@@H]2CSSC[C@H](NC1=O)C(=O)N1CCC[C@H]1C(=O)N[C@@H](CC(=O)O)C(=O)N[C@@H](C(C)C)C(=O)N[C@H](C(=O)N[C@@H](Cc1ccc(O)cc1)C(=O)N[C@H](C(N)=O)C(C)C)CSSC[C@H](NC(=O)[C@H](CCC(N)=O)NC(=O)[C@@H](N)C(C)C)C(=O)N1CCC[C@H]1C(=O)N[C@@H](Cc1c[nH]cn1)C(=O)N[C@@H](Cc1ccccc1)C(=O)N2
B6: IGE134 (peptide)
peptide: VQCPHFCYELDYELCPDVCYV-NH2
modifications: not fully specified (bridges); cysteine pairing not given here
B7: IGE174 (peptide)
peptide: VQCPHFCYELDYELCPWKCYT-NH2
modifications: not fully specified (bridges); cysteine pairing not given here
B8: IGE175 (peptide)
peptide: VQCPHFCYELDYELCPWVCYV-NH2
modifications: not fully specified (bridges); cysteine pairing not given here
B9: IGE173 (peptide)
peptide: VQCPHFCYELDYELCPDKCYT-NH2
modifications: not fully specified (bridges); cysteine pairing not given here
B10: IGE190 (peptide)
peptide: VQCPDFCYELDYELCPDVCYV-NH2
modifications: not fully specified (bridges); cysteine pairing not given here
B11: IGE159 (peptide)
peptide: VQC[NMeA]HFCYFGGAELCPDVCYV-NH2
modifications: disulfide 7-15, 3-19; N-terminus assumed
SMILES: CC(C)C[C@@H]1NC(=O)[C@H](CCC(=O)O)NC(=O)[C@H](C)NC(=O)CNC(=O)CNC(=O)[C@H](Cc2ccccc2)NC(=O)[C@H](Cc2ccc(O)cc2)NC(=O)[C@@H]2CSSC[C@H](NC1=O)C(=O)N1CCC[C@H]1C(=O)N[C@@H](CC(=O)O)C(=O)N[C@@H](C(C)C)C(=O)N[C@H](C(=O)N[C@@H](Cc1ccc(O)cc1)C(=O)N[C@H](C(N)=O)C(C)C)CSSC[C@H](NC(=O)[C@H](CCC(N)=O)NC(=O)[C@@H](N)C(C)C)C(=O)N(C)[C@@H](C)C(=O)N[C@@H](Cc1c[nH]cn1)C(=O)N[C@@H](Cc1ccccc1)C(=O)N2
B12: IGE128 (peptide)
peptide: KSCPLWCYVGGKALCPDVCYV-NH2
modifications: not fully specified (bridges); cysteine pairing not given here
B13: IGE151 (peptide)
peptide: VQCPHFCYFGGAELCPDVCYV
modifications: not fully specified (bridges); cysteine pairing not given here
B14: IGE141 (peptide)
peptide: IVCPRLCYELDYELCPDVCYV-NH2
modifications: cysteine pairing not given here
B15: IGE155 (peptide)
peptide: CPHFCYELDYELCPDVCY-NH2
modifications: not fully specified (bridges); cysteine pairing not given here
B16: IGE152 (peptide)
peptide: VQCPHFCYFGAELCPDVCYV
modifications: disulfide 7-14, 3-18
B17: IGE169 (peptide)
peptide: VQCPHFCYFGAELCPAVCYV-NH2
modifications: disulfide 7-14, 3-18; N-terminus assumed
SMILES: CC(C)C[C@@H]1NC(=O)[C@H](CCC(=O)O)NC(=O)[C@H](C)NC(=O)CNC(=O)[C@H](Cc2ccccc2)NC(=O)[C@H](Cc2ccc(O)cc2)NC(=O)[C@@H]2CSSC[C@H](NC1=O)C(=O)N1CCC[C@H]1C(=O)N[C@@H](C)C(=O)N[C@@H](C(C)C)C(=O)N[C@H](C(=O)N[C@@H](Cc1ccc(O)cc1)C(=O)N[C@H](C(N)=O)C(C)C)CSSC[C@H](NC(=O)[C@H](CCC(N)=O)NC(=O)[C@@H](N)C(C)C)C(=O)N1CCC[C@H]1C(=O)N[C@@H](Cc1c[nH]cn1)C(=O)N[C@@H](Cc1ccccc1)C(=O)N2
B18: IGE132 (peptide)
peptide: VQCPHFCYVGGHALCPDVCYVGR
modifications: not fully specified (bridges); cysteine pairing not given here
notes: produced as Z-domain fusion in E. coli and released with trypsin
B19: IGE145 (peptide)
peptide: VQCPDFCYVGGHALCPDVCYVGR
modifications: not fully specified; cysteine pairing not given here
notes: as for B18
B20: IGE142 (peptide)
peptide: VQCAHFCYVGGHALCPDVCYVGR
modifications: disulfide (positions not given here)
notes: as for B18
B21: IGE156 (peptide)
peptide: VQCPHFCYELDYELCPDVCYVGR
modifications: not fully specified (bridges); cysteine pairing not given here
notes: as for B18
B22: IGE157 (peptide)
peptide: QCPHFCYELDYELCPDVCY-NH2
modifications: not fully specified (bridges); cysteine pairing not given here
B23: IGE153 (peptide)
peptide: VQCPHFCYELDYELCPDVCY-NH2
modifications: not fully specified (bridges); cysteine pairing not given here
B24: IGE135 (peptide)
peptide: VQCPHFCYFGGAELCPDVCYV-NH2
modifications: cysteine pairing not given here
B25: IGE191 (peptide)
peptide: VQCPDFCYFGGAELCPDVCYV-NH2
modifications: not fully specified (bridges); cysteine pairing not given here
B26: IGE136 (peptide)
peptide: VQCPHFCYFGGAELCPGVCYV-NH2
modifications: cysteine pairing not given here
B27: IGE124 (peptide)
peptide: VPCPELCYVGGKALCPDVCYV-NH2
modifications: not fully specified (bridges); cysteine pairing not given here

Each binder was assayed against T1, alpha subunit of the human FcεRI … (assay: inhibition of 125I-IgE binding to CHO cells expressing human FcεRI alpha; competitor IgE).
Experimental: To determine the ability of peptides to inhibit IgE binding to FcεRI, a cell-based binding assay was used with radiolabeled IgE. Chinese hamster ovary cells expressing the alpha subunit of the human FcεRI receptor were cultured overnight in Falcon 96 well microtiter plates at a concentration of 5 ×10^4 cells per well. The following day the cells were rinsed three times with PBS and then once with F12/DMEM. Peptide stocks were reconstituted in 100 mM Hepes buffered water, pH 7.2, at a concentration of 5 mg/mL. Working concentrations of the peptide were diluted in assay buffer (see below). 75 uL of a desired concentration of peptide was added to the top row of a separate 96 well microtiter plate and serially diluted 1:3 in 50 uL of the assay buffer (F12/DMEM, 1% BSA, 0.05% NaN_3 and 0.025 mM Hepes pH 7.2). Starting concentrations ranged from 50–500 uM. Next, 50 uL of the diluted peptide was transferred to the 96 microtiter well plate containing a monolayer of CHO FcεRI+ cells. […] Cells were […]
For B1, the IC50 was 2300 nM. In the case of B2, the IC50 is reported as 380 nM. With B3 the IC50 was 1080 nM. B4 was tested, and the IC50 was 250 nM. B5 gave an IC50 of 890 nM. With B6 the IC50 was 32 nM. For B7, the IC50 was 172 nM. Work on B8 yielded an IC50 of 57 nM. Work on B9 yielded an IC50 of 61 nM. Binder B10 has an IC50 of 58 nM. For B11, the IC50 was 380 nM. Binder B12 has an IC50 of 240 nM. B13 gave an IC50 of 130 nM. B14 was tested, and the IC50 was 131 nM. With B15 the IC50 was 69 nM. With B16 the IC50 was 52 nM. For B17, the IC50 was 128 nM. B18 gave an IC50 of 80 nM. B19 gave an IC50 of 117 nM. B20 gave an IC50 of 1000 nM. Binder B21 has an IC50 of 30 nM. With B22 the IC50 was 107 nM. B23 showed an IC50 of 49 nM. B24 was tested, and the IC50 was 47 nM. B25 was tested, and the IC50 was 210 nM. B26 showed an IC50 of 119 nM. With B27 the IC50 was 890 nM.
